Experimental data published in patent publication US20230374114A1 (Dana-Farber, published 2023).
Changes are numbered by the printed parent chain.

B1: Ab 27 (scFv, V domains shown)
VH: QVQLVQSGTEVKKPGASVKVSCKASGYSFTGSHLHWVRQAPGQGLEWMGWINPDSGVINYAQKFQGRVTLTRDTSISTAYMELSGLRSDDTAVYYCARDKAIGYVWALDYWGQGTLVTVSS
VL: QSALTQPPSVSGSPGQSVTISCTGTSSDVGTYNRVSWYQQPPGKAPKLMIYEVSNRPSGVSNRFSGSKSGNTASLTISGLQAEDEADYYCSSYTRTFTYVFGTGTKVTVL
B2: Ab_18 (scFv, V domains shown)
VH: EVQLVQSGGGVVQPGRSLRVSCAASGFSFSRYGMHWVRQAPGKGLEWVAFIRHDGSKKYYADSVEGRFTISRDNSRNTVSLEMNSLRGEDTAVYYCAKDGRLEAALDDWGQGTLVTVSS
VL: NFMLTQPHSMSGSAGKTVTVSCIRSSGSIANNFVQWYQQRPGSAPTTVIYEDNQRPSGVPDRFSGSIDSSSNSASLTISGLKTEDEADYYCQSYDSSNLVFGGGTRLTVL
B3: Ab_14 (scFv, V domains shown)
VH: QVQLQQSGPGLVKPSQTLSLTCAISGDSVSSNSAAWNWIRQSPARGLEWLGRTYYRSRWYNDYAISMKSRITINPDTSKNQFSLQLESVTPEDTAVYYCAREIRGFDYWGQGTLVTVSS
VL: QSVLTQPPSASGSPGQSVTISCTGTSSDVGAYNFVSWYQHHPGKAPKLIIYDFNKRPSGVPDRFSGSKSGNTASLTVSGLQADDEADYYCSSYAGSNNFDVVFGGGTKLTVL
B4: Ab 20 (scFv, V domains shown)
VH: QVQLVQSGGGSVKPGGSLRLSCAASGYRLSDYYMHWVRQAPGKGLEWVANIKQDGSEKYYVDSVKGRFTISRDNAKNSLYLQMNSLRAEDTAVYYCARVRGWSRGYFDYWGQGTLVTVSS
VL: NFMLTQPHSVSESPGKTVTISCTGSSGSIASNYVQWYQQRPGSAPTTVIYEDNQRPSGVPDRFSGSIDSSSNSASLLISGLKTEDEADYYCQSYDSSNHWVFGGGTKLTVL
B5: Ab 25 (scFv, V domains shown)
VH: QVQLVQSGGGLVQPGGSLRLSCAASGFTFSSYWMSWVRQAPGKGLEWVANIKQDGSEKYYVDSVKGRFTISRDNAKNSLYLQMNSLRAEDTAVYYCARGFYYYGAFDIWGQGTTVTVSS
VL: B4 VL with D68G, L77T
B6: S1-RBD-R3-T1-B12 Ab (Ab_31) (scFv, V domains shown)
VH: QVQLVQSGAEVKKPGSSVKVSCKASGGTFSSYTISWVRQAPGQGLEWMGGIIPILGTPNYAQKFQDRVAITADKSTSTAYMELSSLRSEDTAVYYCAVGSGWYSGFDYWGQGTLVTVSS
VL: B4 VL with N53S, L77T, Y94F, D95H, S96N, H99P, W100V, V101I
B7: Ab 28 (scFv, V domains shown)
VH: QVTLKESGPGLVNPSETLSLTCTVSGASISNSFWSWIRQSPGKGLEWIGYTSYSGNSIYNPSLKSRLTMSIDTSKNQLSLNLRSLTAADTAVYYCARREWIKGHFDYWGQGTLVTVSS
VL: B4 VL with S26G, L77T, H99P, W100V
B8: Ab 26 (scFv, V domains shown)
VH: QVQLVQSGGGLVQPGRSLRLSCAASGFTFDDYAMHWVRQVPGKGLEWVSGIDWNSGVIGYADSVKGRFTISRDNAKNSLYLQMNSLRAEDTALYYCAKDAYSYGFLGAFDIWGQGTMVTVSS
VL: LPVLTQPPSVSVAPGQTASITCGGDNIRTKGVHWYQQKPGQAPLLVIYYASDRPSGIPERFSGSSSGNTATLTISRVEAGDEADYYCQVWDSSSDLVVFGGGTTLTVL
B9: Ab_19 (scFv, V domains shown)
VH: EVQLVESGAEVKKPGESLKISCKGSGYSFTSYWIGWVRQMPGKGLEWMGIIYPGDSDTRYSPSFQGQVTISADKSISTAYLQWSSLKASDTAMYYCARRGDLDAFDIWGQGTMVTVSS
VL: QPGLTQPPAASGTPGQRVTVSCSGASANIGSNAVSWFKQFPETAPRLLISGNTHRPSGVPDRVSGSKSGTSASLTISGLQSDDEADYYCAAWDDSLNGYVFGSGTKVTVL
B10: Ab_16 (scFv, V domains shown)
VH: QVQLVQSGGGVVQPGRSLRLSCAASGFTFSNYGMHWVRQAPGKGLEWVALIWERGSKKDYADSVKGRFTVSRDNSKNTLYLQMNSLRPEDTAVYFCAREGISMTGAEYFQHWGQGTLVTVSS
VL: QSVLTQPPSVSGSPGQRVTMSCTGSSSNIGAGYDVHWYQQVPGAAPRLLIYGTNNRPSGVPDRFSGSKSGTSASLTITGLQAEDEADYYCQSYDNSLTDPYVFGTGTKVTVL
B11: Ab 23 (scFv, V domains shown)
VH: EVQLVQSGAEVKKPGSSVKVSCRSSGGTFSTYGITWVRQAPGQGLEWMGRIIPSLGIPNYAQKFQGRVTITADTSVSTAWMELSSLESDDTAIYYCARENIDLATNDFWGQGTLVTVSS
VL: QSALTQPPSASGSPGQSVTISCTGTSRDIGAYGYVSWYQQVPGKAPKLIIYEVRNRPSGVSSRFSGSKSGNTASLTISGLQAEDEADYYCSSYTSSSTLDVVFGGGTKLTVL
B12: RBD-R3-E1-A5 Ab (Ab_30) (scFv, V domains shown)
VH: QVQLVQSGGGVVQPGKSLRLSCTASGFTFSDFPIHWVRQAPGKGLEWVGVISYDGNIKYYGDSVKGRFTISRDNAKNSLYLQMNSLRVEDTAVYYCARGGSSFDIWGQGTTVTVSS
VL: SYELTQPPSVSEAPRQRVTISCSGSTSNIGNNAVSWYQHLPGKAPKLLIYYNERLPSGVSDRFSGSKSGTSASLAISGLRSEDEADYYCAAWDDSLSGHVVFGGGTKLTVL
B13: Ab 21 (scFv, V domains shown)
VH: QVQLVQSGGGLVQPGGSLRLSCATSGFTFDDYAMHWVRQAPGKGLEWVSGISWNSGSIGYVDSVKGRFTISRDNRNNKVYLQMNNLRAEDTAVYYCARDWWGSIDHWGLGTLVTVSS
VL: QSALTQPRSVSGSPGQSVTISCTGTSSDVGGYDYVSWYQQHPGKAPKLIIYDVSKRPSGVPDRFSGSKSGNTASLTVSGLQAEDEADYYCSSYTSSSPVVFGGGTKLTVL
B14: S1-RBD-R3-T1-C7 Ab (Ab 29) (scFv, V domains shown)
VH: QVQLQQSGPGLVKPSQTLSLTCAISGDSVSSYSDAWNWIRQSPSRGLEWLGRTYYRSKWYNDYAVSVKSRITINPDTSKNQFSLQLSSVTPEDTAVYYCAREIVATTPFRNYYYGMDVWGQGTTVTVSS
VL: NFMLTQPHSVSESPGNTVTISCTRTSGSIASNYVQWYQQRPGSSPTTVIFQDKLRPSGVPDRFSGSIDSSSNSASLTISGLKTEDEADYYCQSYDSSSLWVFGGGTKLTVL
B15: RBD-R3-E1-B3 Ab (Ab_32) (scFv, V domains shown)
VH: QVQLVQSGAEVKKPGESLKISCKGSGYSFTSYWIGWVRQMPGKGLEWMGIIYPGDSDTRYSPSFQGQVTISADKSISTAYLQWSSLKASDTAMYYCARGWQWHDYWGQGTLVTVSS
VL: QTVVTQEPAVSVALGQTVRITCQGDSLRSYYASWYQQKPGQAPVLVVYDKDKRPSGIPDRFSGSTSGNTASLTITGAQAEDEADYYCNSRDRSDNHVVFGGGTKLTVL
B16: Ab_17 (scFv, V domains shown)
VH: QVQLVQSGGGVVQPGRSLRLSCAASGFTFDDYAMHWVRQVPGKGLEWVSGIDWNSGVIGYADSVKGRFTISRDNVKNSLYLQMNSLRTEDSALYYCAKDIGPGGSGSYYAFDIWGQGTTVTVSS
VL: QSALTQPASVSGSPGQSITISCTGTSSDVGGSKYVSWYQQHPGKAPKVMIYDVTKRPSGVPDRFSGSKSGNTASLTISGLQAEDEADYYCAAWDDSLNGVVFGGGTKLTVL

Molecular target: D614G Spike (SARS-CoV-2, UniProt P0DTC2 16-1213)

Binder | Kd [pM]
B1 | 7.53
B2 | 6.33
B3 | 8.12
B4 | 8.64
B5 | 8.56
B6 | 9.03
B7 | 9.41
B8 | 9.97
B9 | 10.9
B10 | 8.35
B11 | 8.82
B12 | 7.43
B13 | 8
B14 | 1.04
B15 | 7.26
B16 | 6.8
